Data taken from publication PMC5902456.
Read-outs that look alike come from different tables or passages of the source.

Tests used:
[1] = target: sfGFP-Ensconsin, wild type (Drosophila melanogaster) (Drosophila melanogaster); assay: TIRF microscopy of fluorescent proteins on immobilized microtubules; recruitment and motility: MAP7 (or ensconsin), 5 nM, flowed in first onto immobilized microtubules, then the kinesin-1 construct (1 nM K560); BRB80 pH 6.8 with 1 mM ATP, 150 mM K-acetate; fold change of kinesin fluorescence on the microtubule against no MAP
[2] = target: taxol-stabilized microtubules of native tubulin, biotin-tubulin and fluorescent-tubulin from porcine brain (~10:1:1) (porcine) (UniProt P02550); assay: as above
[3] = target: sfGFP-MAP7 (full-length human MAP7) (human) (UniProt Q14244); assay: as above
[4] = target: taxol-stabilized microtubules polymerized from porcine brain tubulin (porcine) (UniProt P02550)
[5] = target: taxol-stabilized microtubules of native tubulin, biotin-tubulin and fluorescent-tubulin from porcine brain (~10:1:1) (porcine) (UniProt P02550); assay: TIRF microscopy of fluorescent proteins on immobilized microtubules; 5 nM KIF1A-mScarlet or 3 nM DDB-TMR on immobilized microtubules, alone or with 5 nM sfGFP-MAP7 or 100 nM mTagBFP-tau; 30 mM Hepes pH 7.4, 150 mM K-acetate, 2 mM Mg-acetate, 1 mM EGTA, 10% glycerol, 1 mM ATP
[6] = target: taxol-stabilized microtubules polymerized from porcine brain tubulin (porcine) (UniProt P02550); assay: co-sedimentation; 500 nM sfGFP-MAP7 or sfGFP-tau with increasing microtubules; 50 mM Tris pH 8, 150 mM K-acetate, 2 mM Mg-acetate, 1 mM EGTA, 10% glycerol, DTT, taxol, BSA; 25 °C, 20 min; pelleted at 90,000 g; SDS-PAGE; apparent KD
[7] = target: taxol-stabilized microtubules of native tubulin, biotin-tubulin and fluorescent-tubulin from porcine brain (~10:1:1) (porcine) (UniProt P02550); assay: TIRF microscopy of fluorescent proteins on immobilized microtubules; TIRF-M-based microtubule-binding assay; KD derived from saturation curves
[8] = target: taxol-stabilized microtubules of native tubulin, biotin-tubulin and fluorescent-tubulin from porcine brain (~10:1:1) (porcine) (UniProt P02550); assay: single-molecule dwell time by TIRF microscopy; 250 pM sfGFP-MAP7 or 10 nM sfGFP-tau on immobilized microtubules; kymograph analysis; cumulative frequencies fit to a one phase exponential decay; 30 mM Hepes pH 7.4, 150 mM K-acetate buffer
[9] = target: taxol-stabilized microtubules polymerized from porcine brain tubulin (porcine) (UniProt P02550); assay: co-sedimentation; 500 nM sfGFP-MAP7 or sfGFP-tau with increasing microtubules; 50 mM Tris pH 8, 150 mM K-acetate, 2 mM Mg-acetate, 1 mM EGTA, 10% glycerol, DTT, taxol, BSA; 25 °C, 20 min; pelleted at 90,000 g; SDS-PAGE; apparent KD; remark: listed apart in the source

Sequence of sfGFP-Ensconsin, wild type (Drosophila melanogaster) (Drosophila melanogaster) (main, as listed by the source): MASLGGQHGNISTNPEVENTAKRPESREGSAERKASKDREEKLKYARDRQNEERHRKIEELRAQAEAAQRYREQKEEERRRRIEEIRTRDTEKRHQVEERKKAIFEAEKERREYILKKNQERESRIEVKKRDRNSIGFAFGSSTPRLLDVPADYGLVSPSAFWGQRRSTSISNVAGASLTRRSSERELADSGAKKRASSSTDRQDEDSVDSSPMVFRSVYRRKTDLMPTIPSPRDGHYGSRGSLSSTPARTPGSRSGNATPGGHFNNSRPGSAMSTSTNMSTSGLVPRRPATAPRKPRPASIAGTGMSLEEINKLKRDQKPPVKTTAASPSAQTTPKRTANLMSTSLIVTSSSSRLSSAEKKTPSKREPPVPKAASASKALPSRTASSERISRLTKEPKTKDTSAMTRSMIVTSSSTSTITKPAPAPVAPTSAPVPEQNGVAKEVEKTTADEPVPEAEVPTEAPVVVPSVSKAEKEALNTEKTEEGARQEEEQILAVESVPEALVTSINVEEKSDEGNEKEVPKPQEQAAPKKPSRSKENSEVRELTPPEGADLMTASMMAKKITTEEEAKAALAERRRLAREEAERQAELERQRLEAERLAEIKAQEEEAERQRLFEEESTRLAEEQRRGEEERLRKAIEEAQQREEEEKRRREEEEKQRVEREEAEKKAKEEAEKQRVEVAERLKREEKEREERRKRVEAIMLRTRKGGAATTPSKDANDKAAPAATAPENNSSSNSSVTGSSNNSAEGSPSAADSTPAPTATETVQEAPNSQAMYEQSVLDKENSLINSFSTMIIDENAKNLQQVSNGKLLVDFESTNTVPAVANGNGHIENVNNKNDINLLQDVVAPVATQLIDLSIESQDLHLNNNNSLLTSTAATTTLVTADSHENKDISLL

K560-mScarlet (truncated human kinesin-1) (from UniProt P33176 1-560) (domain or fragment)
fold change in fluorescence intensity on the microtubule in the presence of ensconsin [1]: 147 fold
landing rate (motors μm^−1 min^−1) [2]: 0.09
landing rate with 5 nM sfGFP-MAP7 (motors μm^−1 min^−1) [2]: 1.34
fold change in fluorescence intensity on the microtubule in the presence of sfGFP-MAP7 [3]: 165 fold
KmMT of the microtubule-stimulated ATPase of 50 nM K560-mScarlet, with 50 nM sfGFP-MAP7 [4]: 0.27 µM
KmMT of the microtubule-stimulated ATPase of 50 nM K560-mScarlet, without MAP7 [4]: 1.46 µM

dynein–dynactin-BicD2 (DDB)-TMR complex (from UniProt Q921C5 1-820)
fluorescence intensity on the microtubule [5]: 164 A.U.
fluorescence intensity on the microtubule with 5 nM sfGFP-MAP7 [5]: 147 A.U.

sfGFP-MAP7 (full-length human MAP7) (from UniProt Q14244 1-749) (natural protein)
Kd [6]: 460 nM
Kd [7]: 3030 nM
dwell time decay constant τ [8]: 82.3 s
Kd [9]: 470 nM

K508-mScarlet (from UniProt P33176 1-508) (domain or fragment)
fold change in fluorescence intensity on the microtubule in the presence of sfGFP-MAP7 [3]: 10.9 fold

K523-mScarlet (from UniProt P33176 1-523) (domain or fragment)
fold change in fluorescence intensity on the microtubule in the presence of sfGFP-MAP7 [3]: 152 fold

sfGFP-MAP7ΔC (aa 1–353) (from UniProt Q14244 1-353) (domain or fragment)
Kd [7]: 1390 nM

B1: KIF1A-mScarlet (human KIF1A 1–393) (domain or fragment)
chain: MAGASVKVAVRVRPFNSREMSRDSKCIIQMSGSTTTIVNPKQPKETPKSFSFDYSYWSHTSPEDINYASQKQVYRDIGEEMLQHAFEGYNVCIFAYGQTGAGKSYTMMGKQEKDQQGIIPQLCEDLFSRINDTTNDNMSYSVEVSYMEIYCERVRDLLNPKNKGNLRVREHPLLGPYVEDLSKLAVTSYNDIQDLMDSGNKARTVAATNMNETSSRSHAVFNIIFTQKRHDAETNITTEKVSKISLVDLAGSERADSTGAKGTRLKEGANINKSLTTLGKVISALAEMDSGPNKNKKKKKTDFIPYRDSVLTWLLRENLGGNSRTAMVAALSPADINYDETLSTLRYADRAKQIRCNAVINEDPNNKLIRELKDEVTRLRDLLYAQGLGDITD
fluorescence intensity on the microtubule [5]: 1000 A.U.
fluorescence intensity on the microtubule with 5 nM sfGFP-MAP7 [5]: 332 A.U.
fluorescence intensity on the microtubule with 100 nM mTagBFP-tau [5]: 427 A.U.
landing rate (motors μm^−1 min^−1) [5]: 1.5
landing rate with mTagBFP-tau (motors μm^−1 min^−1) [5]: 0.24
landing rate with sfGFP-MAP7 (motors μm^−1 min^−1) [5]: 0.38
